Measured values taken from the supplement of paper PMC5998384.

Legend:
[1] = system: HeLa Kyoto; test: solubility in G1/S (NP-40 vs SDS abundance) (log2 ratio); higher = more soluble; conditions: cell cycle stage: G1/S
[2] = system: HeLa Kyoto; test: melting temperature (median over replicates), in situ; higher = more thermally stable
[3] = system: HeLa Kyoto; test: solubility change mitosis vs G1/S (difference of NP-40 vs SDS log2 ratios) (log2 ratio difference); higher = more soluble in mitosis
[4] = system: HeLa Kyoto; test: thermal stability score vs G1/S (z-score of summed log2 fold changes over temperatures); higher = more thermally stable than in G1/S
[5] = cell cycle stage: early G1 (4.5 h after nocodazole release)
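For melting temperature (median over replicates), in situ in this document: HeLa Kyoto cells synchronized by double thymidine or nocodazole block, proteins quantified by TMT10plex mass spectrometry, three independent biological replicates.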
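For solubility change mitosis vs G1/S (difference of NP-40 vs SDS log2 ratios) in this document: synchronized HeLa Kyoto cells (double thymidine block for G1/S, nocodazole release for mitosis), protein amounts in NP-40 versus SDS lysates quantified by mass spectrometry, three biological replicates.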
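For solubility in G1/S (NP-40 vs SDS abundance) in this document: HeLa Kyoto cells arrested at G1/S by double thymidine block, proteins quantified by TMT10plex mass spectrometry in mild NP-40 versus SDS extracts, three biological replicates.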
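For thermal stability score vs G1/S (z-score of summed log2 fold changes over temperatures) in this document: synchronized HeLa Kyoto cells, proteins quantified by TMT10plex mass spectrometry, three biological replicates, mitosis taken 0.5 h after nocodazole release, G1/S directly after double thymidine block.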

MVTVGNYCEAEGPVGPAWMQDGLSPCFFFTLVPSTRMALGTLALVLALPCRRRERPAGADSLSWGAGPRISPYVLQLLLATLQAALPLAGLAGRVGTARGAPLPSYLLLASVLESLAGACGLWLLVVERSQARQRLAMGIWIKFRHSPGLLLLWTVAFAAENLALVSWNSPQWWWARADLGQQVQFSLWVLRYVVSGGLFVLGLWAPGLRPQSYTLQVHEEDQDVERSQVRSAAQQSTWRDFGRKLRLLSGYLWPRGSPALQLVVLICLGLMGLERALNVLVPIFYRNIVNLLTEKAPWNSLAWTVTSYVFLKFLQGGGTGSTGFVSNLRTFLWIRVQQFTSRRVELLIFSHLHELSLRWHLGRRTGEVLRIADRGTSSVTGLLSYLVFNVIPTLADIIIGIIYFSMFFNAWFGLIVFLCMSLYLTLTIVVTEWRTKFRRAMNTQENATRARAVDSLLNFETVKYYNAESYEVERYREAIIKYQGLEWKSSASLVLLNQTQNLVIGLGLLAGSLLCAYFVTEQKLQVGDYVLFGTYIIQLYMPLNWFGTYYRMIQTNFIDMENMFDLLKEETEVKDLPGAGPLRFQKGRIEFENVHFSYADGRETLQDVSFTVMPGQTLALVGPSGAGKSTILRLLFRFYDISSGCIRIDGQDISQVTQASLRSHIGVVPQDTVLFNDTIADNIRYGRVTAGNDEVEAAAQAAGIHDAIMAFPEGYRTQVGERGLKLSGGEKQRVAIARTILKAPGIILLDEATSALDTSNERAIQASLAKVCANRTTIVVAHRLSTVVNADQILVIKDGCIVERGRHEALLSRGGVYADMWQLQQGQEETSEDTKPQTMER [ABCB6]
solubility in G1/S (log2) [1]: -0.0102 | melting temperature ([2]; cell cycle stage: G1/S): 54 °C | melting temperature ([2]; cell cycle stage: mitosis): 53.4 °C | solubility change mitosis (log2) [3]: -0.128 | thermal stability score [4, 5]: -1.04 | thermal stability score ([4]; cell cycle stage: mitosis): -3.83

MVVMARLSRPERPDLVFEEEDLPYEEEIMRNQFSVKCWLRYIEFKQGAPKPRLNQLYERALKLLPCSYKLWYRYLKARRAQVKHRCVTDPAYEDVNNCHERAFVFMHKMPRLWLDYCQFLMDQGRVTHTRRTFDRALRALPITQHSRIWPLYLRFLRSHPLPETAVRGYRRFLKLSPESAEEYIEYLKSSDRLDEAAQRLATVVNDERFVSKAGKSNYQLWHELCDLISQNPDKVQSLNVDAIIRGGLTRFTDQLGKLWCSLADYYIRSGHFEKARDVYEEAIRTVMTVRDFTQVFDSYAQFEESMIAAKMETASELGREEEDDVDLELRLARFEQLISRRPLLLNSVLLRQNPHHVHEWHKRVALHQGRPREIINTYTEAVQTVDPFKATGKPHTLWVAFAKFYEDNGQLDDARVILEKATKVNFKQVDDLASVWCQCGELELRHENYDEALRLLRKATALPARRAEYFDGSEPVQNRVYKSLKVWSMLADLEESLGTFQSTKAVYDRILDLRIATPQIVINYAMFLEEHKYFEESFKAYERGISLFKWPNVSDIWSTYLTKFIARYGGRKLERARDLFEQALDGCPPKYAKTLYLLYAQLEEEWGLARHAMAVYERATRAVEPAQQYDMFNIYIKRAAEIYGVTHTRGIYQKAIEVLSDEHAREMCLRFADMECKLGEIDRARAIYSFCSQICDPRTTGAFWQTWKDFEVRHGNEDTIKEMLRIRRSVQATYNTQVNFMASQMLKVSGSATGTVSDLAPGQSGMDDMKLLEQRAEQLAAEAERDQPLRAQSKILFVRSDASREELAELAQQVNPEEIQLGEDEDEDEMDLEPNEVRLEQQSVPAAVFGSLKED [XAB2]
solubility in G1/S (log2) [1]: -0.31 | melting temperature ([2]; cell cycle stage: G1/S): 47.4 °C | melting temperature ([2]; cell cycle stage: mitosis): 48.4 °C | solubility change mitosis (log2) [3]: 0.0385 | thermal stability score [4, 5]: 2.02 | thermal stability score ([4]; cell cycle stage: mitosis): 4.49

MWALRAAVRPGLRLSRVGRGRSAPRAAAPSCPARALAAVGRRSPGNLEGPWGGGRGLRADGGRSRTGDDEEEPEDADENAEEELLRGEPLLPAGTQRVCLVHPDVKWGPGKSQMTRAEWQVAEATALVHTLDGWSVVQTMVVSTKTPDRKLIFGKGNFEHLTEKIRGSPDITCVFLNVERMAAPTKKELEAAWGVEVFDRFTVVLHIFRCNARTKEARLQVALAEMPLHRSNLKRDVAHLYRGVGSRYIMGSGESFMQLQQRLLREKEAKIRKALDRLRKKRHLLRRQRTRREFPVISVVGYTNCGKTTLIKALTGDAAIQPRDQLFATLDVTAHAGTLPSRMTVLYVDTIGFLSQLPHGLIESFSATLEDVAHSDLILHVRDVSHPEAELQKCSVLSTLRGLQLPAPLLDSMVEVHNKVDLVPGYSPTEPNVVPVSALRGHGLQELKAELDAAVLKATGRQILTLRVRLAGAQLSWLYKEATVQEVDVIPEDGAADVRVIISNSAYGKFRKLFPG [GTPBP6]
solubility in G1/S (log2) [1]: -0.232 | melting temperature ([2]; cell cycle stage: G1/S): 51.8 °C | melting temperature ([2]; cell cycle stage: mitosis): 51.4 °C | solubility change mitosis (log2) [3]: 0.00881 | thermal stability score [4, 5]: -0.762 | thermal stability score ([4]; cell cycle stage: mitosis): -0.462

MWFFARDPVRDFPFELIPEPPEGGLPGPWALHRGRKKATGSPVSIFVYDVKPGAEEQTQVAKAAFKRFKTLRHPNILAYIDGLETEKCLHVVTEAVTPLGIYLKARVEAGGLKELEISWGLHQIVKALSFLVNDCSLIHNNVCMAAVFVDRAGEWKLGGLDYMYSAQGNGGGPPRKGIPELEQYDPPELADSSGRVVREKWSADMWRLGCLIWEVFNGPLPRAAALRNPGKIPKTLVPHYCELVGANPKVRPNPARFLQNCRAPGGFMSNRFVETNLFLEEIQIKEPAEKQKFFQELSKSLDAFPEDFCRHKVLPQLLTAFEFGNAGAVVLTPLFKVGKFLSAEEYQQKIIPVVVKMFSSTDRAMRIRLLQQMEQFIQYLDEPTVNTQIFPHVVHGFLDTNPAIREQTVKSMLLLAPKLNEANLNVELMKHFARLQAKDEQGPIRCNTTVCLGKIGSYLSASTRHRVLTSAFSRATRDPFAPSRVAGVLGFAATHNLYSMNDCAQKILPVLCGLTVDPEKSVRDQAFKAIRSFLSKLESVSEDPTQLEEVEKDVHAASSPGMGGAAASWAGWAVTGVSSLTSKLIRSHPTTAPTETNIPQRPTPEGVPAPAPTPVPATPTTSGHWETQEEDKDTAEDSSTADRWDDEDWGSLEQEAESVLAQQDDWSTGGQVSRASQVSNSDHKSSKSPESDWSSWEAEGSWEQGWQEPSSQEPPPDGTRLASEYNWGGPESSDKGDPFATLSARPSTQPRPDSWGEDNWEGLETDSRQVKAELARKKREERRREMEAKRAERKVAKGPMKLGARKLD [SCYL1]
solubility in G1/S (log2) [1]: -0.162 | melting temperature ([2]; cell cycle stage: G1/S): 50.9 °C | melting temperature ([2]; cell cycle stage: mitosis): 50.3 °C | solubility change mitosis (log2) [3]: -0.184 | thermal stability score [4, 5]: 0.0922 | thermal stability score ([4]; cell cycle stage: mitosis): 0.113

MWGDSRPANRTGPFRGSQEERFAPGWNRDYPPPPLKSHAQERHSGNFPGRDSLPFDFQGHSGPPFANVEEHSFSYGARDGPHGDYRGGEGPGHDFRGGDFSSSDFQSRDSSQLDFRGRDIHSGDFRDREGPPMDYRGGDGTSMDYRGREAPHMNYRDRDAHAVDFRGRDAPPSDFRGRGTYDLDFRGRDGSHADFRGRDLSDLDFRAREQSRSDFRNRDVSDLDFRDKDGTQVDFRGRGSGTTDLDFRDRDTPHSDFRGRHRSRTDQDFRGREMGSCMEFKDREMPPVDPNILDYIQPSTQDREHSGMNVNRREESTHDHTIERPAFGIQKGEFEHSETREGETQGVAFEHESPADFQNSQSPVQDQDKSQLSGREEQSSDAGLFKEEGGLDFLGRQDTDYRSMEYRDVDHRLPGSQMFGYGQSKSFPEGKTARDAQRDLQDQDYRTGPSEEKPSRLIRLSGVPEDATKEEILNAFRTPDGMPVKNLQLKEYNTGYDYGYVCVEFSLLEDAIGCMEANQGTLMIQDKEVTLEYVSSLDFWYCKRCKANIGGHRSSCSFCKNPREVTEAKQELITYPQPQKTSIPAPLEKQPNQPLRPADKEPEPRKREEGQESRLGHQKREAERYLPPSRREGPTFRRDRERESWSGETRQDGESKTIMLKRIYRSTPPEVIVEVLEPYVRLTTANVRIIKNRTGPMGHTYGFIDLDSHAEALRVVKILQNLDPPFSIDGKMVAVNLATGKRRNDSGDHSDHMHYYQGKKYFRDRRGGGRNSDWSSDTNRQGQQSSSDCYIYDSATGYYYDPLAGTYYDPNTQQEVYVPQDPGLPEEEEIKEKKPTSQGKSSSKKEMSKRDGKEKKDRGVTRFQENASEGKAPAEDVFKKPLPPTVKKEESPPPPKVVNPLIGLLGEYGGDSDYEEEEEEEQTPPPQPRTAQPQKREEQTKKENEEDKLTDWNKLACLLCRRQFPNKEVLIKHQQLSDLHKQNLEIHRKIKQSEQELAYLERREREGKFKGRGNDRREKLQSFDSPERKRIKYSRETDSDRKLVDKEDIDTSSKGGCVQQATGWRKGTGLGYGHPGLASSEEAEGRMRGPSVGASGRTSKRQSNETYRDAVRRVMFARYKELD [RBM6]
solubility in G1/S (log2) [1]: -0.757 | melting temperature ([2]; cell cycle stage: G1/S): 48.2 °C | melting temperature ([2]; cell cycle stage: mitosis): 50 °C | solubility change mitosis (log2) [3]: 0.361 | thermal stability score [4, 5]: 1.19 | thermal stability score ([4]; cell cycle stage: mitosis): 1.84
